T1: human ephrin-A4 (human, UniProt P52798)
T1 chain: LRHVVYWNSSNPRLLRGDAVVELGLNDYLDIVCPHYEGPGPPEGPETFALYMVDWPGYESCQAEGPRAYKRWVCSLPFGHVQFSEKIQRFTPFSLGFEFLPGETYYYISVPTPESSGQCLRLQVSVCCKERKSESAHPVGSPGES


Legend:
human ephrin-A4 [1] = target: T1, human ephrin-A4; experiment: SPR
human ephrin-A4 [2] = target: T1, human ephrin-A4; experiment: FACS

Binder | Kd (human ephrin-A4 [1]) [nM] | binding result (human ephrin-A4 [2])
SC4.47 (antibody, V domains shown) VH: EVQLQQSGPELVKPGASVKISCTASGYTFTYFYMNWVKQSQGKSLEWVGQINPNNGGTAYNHKFRGKTTLTVDKSSNTAFMELRSLTSEDSAVYFCARWVGTHYFDYWGQGTTLTVSS VL: DIVLTQSPASLPVSLGQRATISCRASQSVSSSSYTYIHWYQQKPGQPPKLLINFASNLESGVPARFSVSGSGTDFTLNIHPVEGEDTATYYCQHSWEIPPTFGGGTKLEIK | 1.1 | 
EphB4-Fc (protein) LEETLLNTKLETADLKWVTFPQVDGQWEELSGLDEEQHSVRTYEVCDVQRAPGQAHWLRTGWVPRRGAVHVYATLRFTMLECLSLPRAGRSCKETFTVFYYESDADTATALTPAWMENPYIKVDTVAAEHLTRKRPGAEATGKVNVKTLRLGPLSKAGFYLAFQDQGACMALLSLHLFYKKCAQLTVNLTRFPETVPRELVVPVAGSCVVDAVPAPGPSPSLYCREDGQWAEQPVTGCSCAPGFEAAEGNTKCRACAQGTFKPLSGEGSCQPCPANSHSNTIGSAVCQCRVGYFRARTDPRGAPCTTPPSAPRSVVSRLNGSSLHLEWSAPLESGGREDLTYALRCRECRPGGSCAPCGGDLTFDPGPRDLVEPWVVVRGLRPDFTYTFEVTALNGVSSLATGPVPFEPVNVTTDREVPPAVSDIRVTRSSPSSLSLAWAVPRAPSGAVLDYEVKYHEKGAEGPSSVRFLKTSENRAELRGLKRGASYLVQVRARSEAGYGPFGQEHHSQTQLDESEGWREQLA |  | no binding
